Values quoted from earlier work in publication PMC5487772.
Read-outs that look alike come from different tables or passages of the source.

Key:
phosphacan [1] = target: phosphacan (UniProt Q62656)
phosphacan [2] = target: phosphacan (UniProt Q62656); remark: listed apart in the source

Chain of UniProt Q62656 (Q62656 25-1637): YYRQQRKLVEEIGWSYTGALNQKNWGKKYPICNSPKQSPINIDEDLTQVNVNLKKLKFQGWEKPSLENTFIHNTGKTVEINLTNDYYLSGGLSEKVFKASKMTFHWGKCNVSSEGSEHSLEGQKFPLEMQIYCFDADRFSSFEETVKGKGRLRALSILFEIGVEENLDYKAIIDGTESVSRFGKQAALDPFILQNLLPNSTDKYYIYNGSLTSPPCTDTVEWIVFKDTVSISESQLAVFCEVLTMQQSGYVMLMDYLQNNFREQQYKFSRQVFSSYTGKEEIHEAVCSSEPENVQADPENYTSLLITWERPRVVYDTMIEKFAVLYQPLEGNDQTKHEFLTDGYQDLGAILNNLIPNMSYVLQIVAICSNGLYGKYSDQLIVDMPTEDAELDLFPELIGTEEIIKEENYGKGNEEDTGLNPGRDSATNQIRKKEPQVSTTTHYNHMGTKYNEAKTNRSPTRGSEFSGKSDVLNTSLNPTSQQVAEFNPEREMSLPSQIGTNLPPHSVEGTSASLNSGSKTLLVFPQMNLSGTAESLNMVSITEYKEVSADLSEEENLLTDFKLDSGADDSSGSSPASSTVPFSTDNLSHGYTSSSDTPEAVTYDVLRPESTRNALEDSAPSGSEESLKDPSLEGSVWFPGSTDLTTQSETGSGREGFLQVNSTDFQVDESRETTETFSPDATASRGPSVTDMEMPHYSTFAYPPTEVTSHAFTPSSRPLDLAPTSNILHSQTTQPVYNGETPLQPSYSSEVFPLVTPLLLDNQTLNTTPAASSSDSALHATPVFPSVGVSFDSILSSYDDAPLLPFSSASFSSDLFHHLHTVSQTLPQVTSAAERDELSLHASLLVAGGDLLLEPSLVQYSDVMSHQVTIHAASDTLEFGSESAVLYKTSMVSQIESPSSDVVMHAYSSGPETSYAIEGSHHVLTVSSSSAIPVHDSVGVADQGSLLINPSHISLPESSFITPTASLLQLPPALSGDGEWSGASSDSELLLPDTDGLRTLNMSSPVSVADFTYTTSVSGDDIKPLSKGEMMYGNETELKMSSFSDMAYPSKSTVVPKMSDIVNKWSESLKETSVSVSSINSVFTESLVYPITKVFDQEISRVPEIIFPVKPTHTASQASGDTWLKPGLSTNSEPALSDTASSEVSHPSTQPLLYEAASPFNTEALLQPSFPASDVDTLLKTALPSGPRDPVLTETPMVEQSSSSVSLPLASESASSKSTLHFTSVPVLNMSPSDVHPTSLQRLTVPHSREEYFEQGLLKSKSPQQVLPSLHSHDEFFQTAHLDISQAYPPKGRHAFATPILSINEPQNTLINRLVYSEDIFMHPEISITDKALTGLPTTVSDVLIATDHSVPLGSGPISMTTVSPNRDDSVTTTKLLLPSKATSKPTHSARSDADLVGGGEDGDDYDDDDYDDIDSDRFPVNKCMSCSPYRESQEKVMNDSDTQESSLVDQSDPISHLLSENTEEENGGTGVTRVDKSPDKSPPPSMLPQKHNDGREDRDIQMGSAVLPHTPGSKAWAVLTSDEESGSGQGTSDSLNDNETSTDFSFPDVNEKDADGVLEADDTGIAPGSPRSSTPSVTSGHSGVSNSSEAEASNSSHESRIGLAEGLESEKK

Kd (phosphacan [1])	Kd (phosphacan [2])	Substance
0.5 nM		N-CAM (from UniProt P13591)
	0.5 nM	Ng-CAM (from UniProt Q03696)
